Reference: article PMC3745347, “Interaction of Glucocorticoid Receptor (GR) with Estrogen Receptor (ER) α and Activator Protein 1 (AP1) in Dexamethasone-mediated Interference of ERα Activity*” (The Journal of Biological Chemistry, 2013)

Molecular target: T1, baculovirus expressed full-length human GR (human, UniProt P04150 1-777)
T1 construct: human glucocorticoid receptor, full length, baculovirus-expressed; source: produced in baculovirus, bought: Invitrogen, partially purified
T1 sequence (looked up): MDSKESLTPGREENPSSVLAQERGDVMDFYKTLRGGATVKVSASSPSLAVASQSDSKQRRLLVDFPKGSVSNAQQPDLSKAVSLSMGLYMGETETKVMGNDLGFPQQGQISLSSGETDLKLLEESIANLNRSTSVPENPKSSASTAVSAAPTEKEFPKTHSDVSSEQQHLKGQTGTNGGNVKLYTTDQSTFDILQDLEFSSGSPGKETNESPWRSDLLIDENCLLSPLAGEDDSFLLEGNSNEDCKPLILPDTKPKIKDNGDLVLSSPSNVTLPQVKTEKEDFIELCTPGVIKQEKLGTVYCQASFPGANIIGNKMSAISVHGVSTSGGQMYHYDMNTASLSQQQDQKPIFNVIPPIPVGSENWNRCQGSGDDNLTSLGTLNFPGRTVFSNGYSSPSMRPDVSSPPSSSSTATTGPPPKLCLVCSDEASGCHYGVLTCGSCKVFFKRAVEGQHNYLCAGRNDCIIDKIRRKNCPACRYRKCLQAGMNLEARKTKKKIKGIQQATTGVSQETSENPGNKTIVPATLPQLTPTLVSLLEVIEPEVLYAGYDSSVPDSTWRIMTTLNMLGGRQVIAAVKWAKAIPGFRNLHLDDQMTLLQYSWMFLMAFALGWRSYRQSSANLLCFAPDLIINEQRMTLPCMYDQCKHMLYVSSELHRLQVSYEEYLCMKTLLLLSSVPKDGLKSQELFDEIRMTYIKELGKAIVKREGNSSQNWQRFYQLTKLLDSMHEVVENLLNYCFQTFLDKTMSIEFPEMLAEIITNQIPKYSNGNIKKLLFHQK
Experiment: pull-down; GST-ERα proteins on glutathione beads incubated with baculovirus-expressed, partially purified human GR; 50 mM Tris pH 8.0, 5 mM EDTA, 150 mM NaCl, 0.5% Nonidet P-40, 1 h at 4 °C; washes with up to 500 mM NaCl; blot for GR
Conditions: both partners purified

B1: GST-ERα-N (aa 1-250) (domain or fragment, human, UniProt P03372 1-250, looked up)
chain: MTMTLHTKASGMALLHQIQGNELEPLNRPQLKIPLERPLGEVYLDSSKPAVYNYPEGAAYEFNAAAAANAQVYGQTGLPYGPGSEAAAFGSNGLGGFPPLNSVSPSPLMLLHPPPQLSPFLQPHGQQVPYYLENEPSGYTVREAGPPAFYRPNSDNRRQGGRERLASTNDKGSMAMESAKETRYCAVCNDYASGYHYGVWSCEGCKAFFKRSIQGHNDYMCPATNQCTIDKNRRKSCQACRLRKCYEVGM
notes: estrogen receptor alpha, residues 1-250 (N-terminal region: AF1 and DBD); Made in pGEX-6P1; the species of the GST construct itself is not separately stated; also called N-terminal half of ERα
Does B1 bind?
Result: binds
